{"source": "patent US8697714B2", "about": "“Quinazolinone based fluorogenic probes” (Nanyang Technological University, priority 2010, dated 2014)", "proteins": {"B1": {"name": "MAO B (Homo sapiens) (protein)", "chain": "MSNKCDVVVVGGGISGMAAAKLLHDSGLNVVVLEARDRVGGRTYTLRNQKVKYVDLGGSYVGPTQNRILRLAKELGLETYKVNEVERLIHHVKGKSYPFRGPFPPVWNPITYLDHNNFWRTMDDMGREIPSDAPWKAPLAEEWDNMTMKELLDKLCWTESAKQLATLFVNLCVTAETHEVSALWFLWYVKQCGGTTRIISTTNGGQERKFVGGSGQVSERIMDLLGDRVKLERPVIYIDQTRENVLVETLNHEMYEAKYVISAIPPTLGMKIHFNPPLPMMRNQMITRVPLGSVIKCIVYYKEPFWRKKDYCGTMIIDGEEAPVAYTLDDTKPEGNYAAIMGFILAHKARKLARLTKEERLKKLCELYAKVLGSLEALEPVHYEEKNWCEEQYSGGCYTTYFPPGILTQYGRVLRQPVDRIYFAGTETATHWSGYMEGAVEAGERAAREILHAMGKIPEDEIWQSEPESVDVPAQPITTTFLERHLPSVPGLLRLIGLTTIFSATALGFLAHKRGLLVRV", "notes": "purchased Sigma Aldrich"}, "B2": {"name": "MAO A (Homo sapiens) (protein)", "chain": "MENQEKASIAGHMFDVVVIGGGISGLSAAKLLTEYGVSVLVLEARDRVGGRTYTIRNEHVDYVDVGGAYVGPTQNRILRLSKELGIETYKVNVSERLVQYVKGKTYPFRGAFPPVWNPIAYLDYNNLWRTIDNMGKEIPTDAPWEAQHADKWDKMTMKELIDKICWTKTARRFAYLFVNINVTSEPHEVSALWFLWYVKQCGGTTRIFSVTNGGQERKFVGGSGQVSERIMDLLGDQVKLNHPVTHVDQSSDNIIIETLNHEHYECKYVINAIPPTLTAKIHFRPELPAERNQLIQRLPMGAVIKCMMYYKEAFWKKKDYCGCMIIEDEDAPISITLDDTKPDGSLPAIMGFILARKADRLAKLHKEIRKKKICELYAKVLGSQEALHPVHYEEKNWCEEQYSGGCYTAYFPPGIMTQYGRVIRQPVGRIFFAGTETATKWSGYMEGAVEAGERAAREVLNGLGKVTEKDIWVQEPESKDVPAVEITHTFWERNLPSVSGLLKIIGFSTSVTALGFVLYKYKLLPRS", "notes": "purchased Sigma Aldrich"}}, "key": {"[1]": {"substrate": "NCCCOc1ccc(Cl)cc1-c1nc2ccc(Cl)cc2c(=O)[nH]1", "test": "Enzymatic kinetics of MAO-HPQ 1 oxidation (Lineweaver-Burk plot), MAO B", "format": "biochemical", "conditions": "other: MAO B, Tris-buffer 100 mM pH 7.90, 25° C., pH 7.9", "description": "(§1) The enzyme kinetics was carried out in Tris-buffer (100 mM, pH 7.90) at 25° C. The enzymatic oxidation of fluorogenic substrate MAO-HPQ 1 was monitored in Varian Cary eclipse Fluorescence spectrophotometer. To a series of different MAO-HPQ 1 substrate concentration (ranged from 0˜250 μM) were added a solution of MAO A or MAO B enzyme with final concentration of […] was added to adjust the final volume to 100 μl. The rate of enzymatic oxidation was monitored with the increase of fluorescent enhancement at 530 nm. The values of the enzyme kinetic parameters (Km and Kcat) were determined from the standard Lineweaver-Burk plot, the double-reciprocal plot of the reaction rate versus MAO-HPQ 1 concentration.\n(§2) Measurement of the fluorescent signal at different substrate concentrations provided the Michaelis-Menten kinetics constants."}, "[2]": {"substrate": "NCCCOc1ccc(Cl)cc1-c1nc2ccc(Cl)cc2c(=O)[nH]1", "test": "Enzymatic kinetics of MAO-HPQ 1 oxidation (Lineweaver-Burk plot), MAO A", "format": "biochemical", "conditions": "other: MAO A, Tris-buffer 100 mM pH 7.90, 25° C., pH 7.9", "description": "as §1, §2"}}}
{"protein": "B1", "values": [{"measurement": "Km", "setting": "[1]", "value": "106.8 ± 5.06", "unit": "µM"}, {"measurement": "kcat", "setting": "[1]", "value": "0.141 ± 0.007", "unit": "s⁻¹"}, {"measurement": "kcat/Km", "setting": "[1]", "value": 1320, "unit": "M⁻¹ s⁻¹"}]}
{"protein": "B2", "values": [{"measurement": "Km", "setting": "[2]", "value": "146.1 ± 7.21", "unit": "µM"}, {"measurement": "kcat", "setting": "[2]", "value": "0.163 ± 0.00817", "unit": "s⁻¹"}]}
